In the supplement of paper PMC12667976:
± gives the standard error.

B1: library; numbered along this chain (parent)
chain: MATDAALRRLLRLHRTEIAVAVDSAFPLLHALADHDVVPEDKFQETLHLKEKEGCPQAFHALLSWLLTQDSTAILDFWRVLFKDYNLERYGRLQPILDSFPKDVDLSQPRKGRKPPAVPKALVPPPRLPTKRKASEEARAAAPAALTPRGTASPGSQLKAKPPKKPESSAEQQRLPLGNGIQTMSASVQRAVAMSSGDVPGARGAVEGILIQQVFESGGSKKCIQVGGEFYTPSKFEDSGSGKNKARSSSGPKPLVRAKGAQGAAPGGGEARLGQQGSVPAPLALPSDPQLHQKNEDECAVCRDGGELICCDGCPRAFHLACLSPPLREIPSGTWRCSSCLQATVQEVQPRAEEPRPQEPPVETPLPPGLRSAGEEVRGPPGEPLAGMDTTLVYKHLPAPPSAAPLPGLDSSALHPLLCVGPEGQQNLAPGARCGVCGDGTDVLRCTHCAAAFHWRCHFPAGTSRPGTGLRCRSCSGDVTPAPVEGVLAPSPARLAPGPAKDDTASHEPALHRDDLESLLSEHTFDGILQWAIQSMARPAAPFPS

Variants of: B1
Assay: AIRE transcriptional activation functional score (insulin promoter-GFP; nonsense median 0, synonymous median 1) (normalised score); higher = higher AIRE activity (more reporter activation)
Conditions: with insulin promoter-GFP reporter in HEK293
Experimental: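 Deep mutational scan of full-length human AIRE (codon-optimized cDNA, DT-POPCode NNN libraries over three regions) integrated at a Bxb1 landing pad in HEK293 cells carrying an insulin core promoter-GFP reporter at a Flp-In site. Cells were sorted for the top 10% GFP about 14 days after transfection. Variant frequency log-ratios (select vs non-select, TileSeq) were rescaled so that the nonsense median is 0 and the synonymous median is 1, then averaged over biological replicates.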

In order of rising “AIRE transcriptional activation functional score” value:
1. P162N  -1.7 ± 0.52
2. F100R  -0.588 ± 0.65
3. D526R  -0.505 ± 0.11
4. V80C  -0.468 ± 0.21
5. G208F  -0.178 ± 0.25
6. I96P  -0.0986 ± 0.36
7. R12S  -0.0905 ± 0.47
8. Q530R  -0.0677 ± 0.32
9. K42C  -0.000636 ± 0.22
10. K42F  0.0107 ± 0.18
11. E517Q  0.0484 ± 0.048
12. C475L  0.0763 ± 0.17
13. L81Y  0.0857 ± 0.077
14. F43C  0.163 ± 0.23
15. Q213L  0.173 ± 0.27
16. L81E  0.209 ± 0.3
17. R471V  0.217 ± 0.32
18. R247D  0.268 ± 0.11
19. T68R  0.304 ± 0.66
20. T68A  0.312 ± 0.28
21. A202F  0.397 ± 0.12
22. A540W  0.41 ± 0.054
23. A540F  0.417 ± 0.032
24. C223Q  0.474 ± 0.13
25. F543S  0.493 ± 0.26
26. R9W  0.515 ± 0.082
27. Q108F  0.53 ± 0.066
28. P252R  0.567 ± 0.33
29. L47F  0.568 ± 0.16
30. V420H  0.593 ± 0.17
31. R445D  0.596 ± 0.048
32. V80L  0.613 ± 1.2
33. K395H  0.628 ± 0.22
34. V420Y  0.639 ± 0.099
35. G467D  0.675 ± 0.16
36. C223A  0.737 ± 0.23
37. A540Q  0.739 ± 0.11
38. P492C  0.756 ± 0.18
39. A505K  0.78 ± 0.056
40. Q108W  0.796 ± 0.087
41. G374H  0.816 ± 0.16
42. S248V  0.819 ± 0.23
43. Q172K  0.844 ± 0.4
44. R473G  0.848 ± 0.2
45. P350T  0.866 ± 0.16
46. Q276V  0.873 ± 0.11
47. G218D  0.885 ± 0.14
48. E167S  0.898 ± 0.7
49. Q44I  0.916 ± 0.89
50. G462S  0.982 ± 0.23
51. A403P  0.99 ± 0.26
52. A540G  1 ± 0.31
53. A496S  1.02 ± 0.23
54. L341N  1.02 ± 0.053
55. V420A  1.04 ± 0.17
56. A496I  1.04 ± 0.29
57. V393A  1.04 ± 0.068
58. G263T  1.06 ± 0.28
59. P233T  1.07 ± 0.048
60. T468G  1.08 ± 0.33
61. S491P  1.1 ± 0.45
62. Q276D  1.11 ± 0.42
63. P350M  1.11 ± 0.077
64. Q358L  1.14 ± 0.12
65. Q172D  1.14 ± 0.11
66. S220E  1.14 ± 0.046
67. H396F  1.15 ± 0.14
68. T468D  1.18 ± 0.066
69. E167I  1.19 ± 0.28
70. A152Y  1.21 ± 0.48
71. L409S  1.23 ± 0.38
72. A461H  1.23 ± 0.27
73. Q108Y  1.24 ± 0.12
74. L158F  1.27 ± 0.11
75. A403V  1.29 ± 0.082
76. G263W  1.29 ± 0.019
77. P361M  1.3 ± 0.036
78. K120M  1.31 ± 0.077
79. S491Y  1.35 ± 0.032
80. A386L  1.36 ± 0.11
81. P481Y  1.37 ± 0.058
82. G180R  1.63 ± 0.47
83. E88Q  1.91 ± 1.3
84. E167Y  2.17 ± 0.39
